Measurements from US20190330347A1 (TAIZHOU HANZHONG BIOPHARMACEUTICS, published 2019).

Experiments:
PD-1-his antigen [1] = target: T1, PD-1-his antigen (UniProt Q15116 25-167, limits assumed); test: ELISA on coated PD-1-his
T1 construct: Human is implied, since cynomolgus and rat PD1 are called non-human antigens
Description: (§1) An ELISA plate was coated with PD-1-his antigen in a concentration of 0.25 μg/ml (100 μl per well) by incubation at 4° C. overnight.
(§2) The ELISA plate coated with the PD-1-his antigen was blocked with 1% BSA in the PBS buffer at 37° C. for 2 hours and washed with 1 xPBST buffer containing 1% Tween-20 for three times, with gently patting to dryness.
(§3) The absorbance of solution in each well was measured with the microplate reader at a wavelength of 450 nm.

[2] = target: T2, PD1-hFc of Cynomolgus monkey (Macaca fascicularis) (Cynomolgus monkey (Macaca fascicularis), UniProt B0LAJ3 25-170); test: ELISA on coated cynomolgus PD1-hFc
T2 construct: also called PD1 of Cynomolgus monkey

FcγRIIIa-Biotin = target: T3, FcγRIIIa-Biotin (UniProt P08637 17-208, limits assumed, biotin (site not stated)); test: Fortebio Octet BLI, FcγRIIIa-Biotin on SA sensor
T3 construct: also called CD16a
From the text: The data was collected with the Fortebio Data Acquisition 7.0 software and analyzed with the Fortebio Data Analysis 7.0 software.

[3] = target: T4, PD1 on the surface of cell membrane (293T cell line stably transfected with PD1) (UniProt Q15116 25-288, limits assumed); test: FACS on 293T cells stably transfected with PD1
T4 construct: whole, on cells
Description: Step f) Each group was centrifuged at 4000 r/min at a low temperature for 5 minutes, followed by washing with the PBS buffer once and adding 200 μl PBS for suspending, thus obtaining a suspension for on-line detection.

serum complement C1q = serum complement C1q (UniProt P02745 23-245; P02746 28-253; P02747 29-245); test: Fortebio Octet BLI, H8L2 on FAB2G sensor, C1q in solution
From the text: Serum complement C1q can bind to the Fc fragment of IgG antibody, thus involving in complement-dependent cytotoxicity (CDC). The safety and efficacy of a therapeutic monoclonal antibody will be affected by the binding ability of the monoclonal antibody to the serum complement C1q.
After binding for 120 seconds, the PBST buffer was applied to the FAB2G sensor for disassociation, which was kept for 180 seconds. The data was collected with the Fortebio Data Acquisition 7.0 software and analyzed with the Fortebio Data Analysis 7.0 software.

PD-1-hIgGFc antigen [4] = target: T5, PD-1-hIgGFc antigen (UniProt Q15116 25-167, limits assumed); test: competitive ELISA on coated PD-1-hIgGFc, competitor PDL2-his tag
Description: A 96-well ELISA plate was coated with PD-1-hIgGFc antigen in a concentration of 1.0 μg/ml (100 μl per well) by incubation at 4° C. overnight.
After the 96-well ELISA plate was washed with the PBST buffer for five times and gently patted to dryness, HRP-conjugated monoclonal mouse anti-his tag as a secondary antibody in 1:750 dilution (50 μl per well) was added for incubation at 37° C. for 1 hour.

PD-1-hIgGFc antigen [5] = target: T5, PD-1-hIgGFc antigen; test: competitive ELISA on coated PD-1-hIgGFc, competitor PDL1-mIgG2aFc
Description: A 96-well ELISA plate was coated with PD-1-hIgGFc antigen in a concentration of 0.5 μg/ml (50 μl per well) by incubation at 4° C. overnight.

PD-1-his antigen [6] = target: T1, PD-1-his antigen; test: ELISA on coated PD-1-his; antibody at 1:3 dilution of 2 µg/ml
Description: as §1, §2, §3

[7] = target: T4, PD1 on the surface of cell membrane …; test: FACS competition on 293T-PD1 cells, competitor PDL1-mFc 20 nM

T5 sequence (Q15116 25-167 limits assumed): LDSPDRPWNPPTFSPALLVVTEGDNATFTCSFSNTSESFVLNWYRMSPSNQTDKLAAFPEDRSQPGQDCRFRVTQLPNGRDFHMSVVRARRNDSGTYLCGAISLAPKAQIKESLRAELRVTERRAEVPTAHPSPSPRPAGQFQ
T1 sequence (Q15116 25-167 limits assumed): as above
T4 sequence (Q15116 25-288 limits assumed): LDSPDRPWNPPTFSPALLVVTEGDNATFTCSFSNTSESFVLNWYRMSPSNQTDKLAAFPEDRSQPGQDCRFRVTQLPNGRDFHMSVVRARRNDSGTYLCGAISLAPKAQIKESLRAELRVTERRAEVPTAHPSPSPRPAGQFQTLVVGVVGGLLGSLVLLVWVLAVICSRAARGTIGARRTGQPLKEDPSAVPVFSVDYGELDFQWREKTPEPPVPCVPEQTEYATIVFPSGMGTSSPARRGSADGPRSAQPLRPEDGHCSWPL
T3 sequence (P08637 17-208 limits assumed): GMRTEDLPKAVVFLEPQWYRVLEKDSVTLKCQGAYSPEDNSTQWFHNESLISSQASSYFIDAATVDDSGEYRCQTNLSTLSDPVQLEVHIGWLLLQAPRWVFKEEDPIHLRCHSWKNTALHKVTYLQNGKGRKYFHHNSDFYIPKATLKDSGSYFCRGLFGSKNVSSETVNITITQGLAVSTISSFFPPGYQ
T2 sequence (B0LAJ3 entry or part of it limits assumed, form in doubt): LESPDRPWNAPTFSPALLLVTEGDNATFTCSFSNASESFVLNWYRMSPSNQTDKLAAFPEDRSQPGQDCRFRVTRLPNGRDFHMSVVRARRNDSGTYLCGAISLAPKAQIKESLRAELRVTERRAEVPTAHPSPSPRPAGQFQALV
serum complement C1q, sequence (P02745 23-245 limits assumed, chain 1 of 3): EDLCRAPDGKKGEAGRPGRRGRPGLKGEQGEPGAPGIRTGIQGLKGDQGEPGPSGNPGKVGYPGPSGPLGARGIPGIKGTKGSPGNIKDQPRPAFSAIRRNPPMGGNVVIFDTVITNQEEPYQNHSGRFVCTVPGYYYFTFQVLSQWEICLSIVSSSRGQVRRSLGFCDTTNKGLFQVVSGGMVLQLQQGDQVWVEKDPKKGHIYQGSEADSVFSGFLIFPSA
serum complement C1q, sequence (P02746 28-253 limits assumed, chain 2 of 3): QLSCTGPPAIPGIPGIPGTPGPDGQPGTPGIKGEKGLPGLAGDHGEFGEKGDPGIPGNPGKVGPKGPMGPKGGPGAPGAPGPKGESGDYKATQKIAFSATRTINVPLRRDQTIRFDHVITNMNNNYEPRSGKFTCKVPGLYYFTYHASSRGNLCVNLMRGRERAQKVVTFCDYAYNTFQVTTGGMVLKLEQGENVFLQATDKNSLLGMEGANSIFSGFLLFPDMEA
serum complement C1q, sequence (P02747 29-245 limits assumed, chain 3 of 3): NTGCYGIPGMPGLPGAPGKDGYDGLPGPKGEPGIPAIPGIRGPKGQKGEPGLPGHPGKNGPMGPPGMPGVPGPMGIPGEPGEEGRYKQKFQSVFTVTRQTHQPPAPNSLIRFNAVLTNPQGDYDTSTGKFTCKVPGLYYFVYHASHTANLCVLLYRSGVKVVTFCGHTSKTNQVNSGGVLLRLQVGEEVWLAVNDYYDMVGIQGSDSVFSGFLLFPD

B1: humanized H8L2 antibody (IgG-like antibody H8L2 against PD-1) (antibody)
heavy: EVQLVQSGGGLVQPGGSLKLSCAASGFTFSSYGMSWVRQAPGKGLDWVATISGGGRDTYYPDSVKGRFTISRDNSKNNLYLQMNSLRAEDTALYYCARQKGEAWFAYWGQGTLVTVSSASTKGPSVFPLAPCSRSTSESTAALGCLVKDYFPEPVTVSWNSGALTSGVHTFPAVLQSSGLYSLSSVVTVPSSSLGTKTYTCNVDHKPSNTKVDKRVESKYGPPCPPCPAPEFLGGPSVFLFPPKPKDTLMITRTPEVTCVVVDVSQEDPEVQFNWYVDGVEVHNAKTKPREEQFNSTYRVVSVLTPLHQDWLNGKEYKCKVSNKGLPSSIEKTISKAKGQPREPQVYTLPPSQEEMTKNQVSLTCLVKGFYPSDIAVEWESNGQPENNYKTTPPVLDSDGSFFLYSRLTVDKSRWQEGNVFSCSVMHEALHAHYTQKSLSLSLGK
light: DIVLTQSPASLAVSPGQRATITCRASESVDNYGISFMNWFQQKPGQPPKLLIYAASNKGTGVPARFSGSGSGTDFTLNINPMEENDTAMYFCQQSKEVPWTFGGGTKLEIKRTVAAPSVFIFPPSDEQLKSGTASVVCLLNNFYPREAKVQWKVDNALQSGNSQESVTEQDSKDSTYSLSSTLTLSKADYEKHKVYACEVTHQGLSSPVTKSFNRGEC
notes: Expressed in 293 cells and purified on protein A; also called 18A10 H8L2
For B1, the EC50 (PD-1-his antigen [1]) was 0.04 nM, the EC50 [2] was 0.219 nM and the binding result (FcγRIIIa-Biotin) was “no binding (tested: 4000 nM)”. The EC50 [3] was 3.4 nM, the binding result (serum complement C1q) was “no binding (tested: 3.13 to 200 nM)” and the EC50 (PD-1-hIgGFc antigen [4]) was 1.83 nM. For the same binder, the EC50 (PD-1-hIgGFc antigen [5]) was 0.474 nM, the “absorbance at 450 nm” value (PD-1-his antigen [6]) was 1.76 and the EC50 [7] was 19.6 nM.
